# Measured values reported in PMC8795117, “Structures and function of a tailoring oxidase in complex with a nonribosomal peptide synthetase module” (Nature Communications, 2022).
# Values joined by “and” are separate entries in the source; they are usually repeats but may differ in a detail not shown here. Equal entries are not always repeated.
# B1: BmdB_A2 (domain or fragment)
# chain: YNATAEPIPAATLHQLFIDQAQRTPDQVAVVFEQEWLTYSELDQRSNQVARFLQSRGIGRGDRVGVLAKRQVETIINLMAVLKAGAAYVPIDPDHPYERQTYILENSSCKILLDSDLYETMEISSYADGDLTPVAEPEDTAYVIYTSGSTGRPKGVIITHQAASNTIQDINRKFEVNEEDRIIGISSMCFDLSVYDIFGTLSAGATLVMIRDPRDMRELVRTVERRGITIWNTVPAIMDLALDHVGSHFENISLRLVLLSGDWIPLPLPAKINRHFPVADVISLGGATEASIWSIYWPIEQVEANWKSIPYGKPLANQTYYVLNYDQKMCPVGVIGDLYIGGAGLAQGYLNDDQKTKDAFIMHPEFGPIYKTGDCGRMRPEGYIEFLGRQDYQVKIQGYRVELEEISHCLLTYPDVDQAVVIDQTDERGMKFLVGYVVAQQEIDEKALRKHLMEHLPEYMIPAHLVHLEQLPLTPNGKLDRKALPVPKKQRNAEKFV
# Target: T1, BmdC (Thermoactinomyces vulgaris F-5595)
# T1 construct: BmdC, FMN-dependent oxidase of the bacillamide pathway, Thermoactinomyces vulgaris F-5595 (WP_022737638.1); RREL domain, 45-residue loop, Ox domain (residues 142-325); Co-purifies with FMN; also called oxidase BmdC; dimeric BmdC; source: E. coli BL21(DE3), purified (IMAC, CBP column, TEV cleavage, gel filtration)
# Assay: ITC; 600 μM BmdB A2 injected into 60 μM dimeric BmdC, 25 °C, 50 mM Tris-HCl pH 7.5, 200 mM NaCl, 1 mM TCEP; fitted with a binding model using a stoichiometry of 1; triplicate
# Details: both partners purified
binder,measurement,value
B1,Kd,~75 nM and 44 to 118 nM
